# Laboratory results taken from patent publication US9200252B2, “Compositions for inducing differentiation into retinal cells from retinal progenitor cells or inducing proliferation of retinal cells comprising Wnt signaling pathway activators” (SNU R&DB Foundation, priority 2009, dated 2015).
# Several values for one entry are separate records, joined by “and”; a condition that tells them apart may be missing. Equal entries are not always repeated.
# Experiments:
# Assay type in all cases: cell-based, human
# [1] = test system: hESC-derived retinal progenitor cells; experiment: Expression levels of retinal cell markers before and after Wnt3a addition (retinal progenitor cells into neural retinal progenitor cells); conditions: on Day 18; Wnt3a 50 ng/ml for 5 days from Day 13
# Description: To differentiate the retinal progenitor cells generated in Example 3 into neural retinal progenitor cells, Dkk-1 supply was quit on day 3 after induction and a culture medium containing a combination of noggin, IGF-1, FGF2 and Wnt3a was supplied for 5 days (FIG. 1). The culture medium was composed as follows: [DMEM/F12 (Invitrogen), 1 mM L-glutamine (Invitrogen), 0.1 mM nonessential amino acids (Invitrogen), 0.1 mM mercaptoethanol (Sigma-Aldrich), 1% B27 supplement (Invitrogen), 1% N2 supplement (Invitrogen), 10 ng/ml noggin, 10 ng/ml IGF-1, 5 ng/ml FGF2, and 50 ng/ml recombinant Wnt3a (R&D Systems)].
# The eye field precursors (floating aggregates) were cultured in 8-well poly-D-lysine/laminin-coated slides (BD Biosciences, Bedford, Mass.) under the same conditions that were used for differentiation into the retinal progenitor cells, the neural retinal progenitor cells, the photoreceptor cell precursors and the photoreceptor cells. The cells completely cultured in each step were fixed with 4% paraformaldehyde (Sigma-Aldrich), after which non-specific reactions were blocked with PBS containing 3% BSA (Jackson Immunoresearch Laboratory, Bar Harbor, Me., USA) and 0.25% Triton X-100 (Sigma-Aldrich).
# (§1) After being blocked for 90 min, the slides in each differentiation step were incubated overnight at 4° C. with the following antibodies specific for cells of each differentiation step: rabbit-Blue-opsin (1:500, Chemicon), sheep-Chx10 (1:100, Chemicon), rabbit-Crx (1:200, Santa Cruz Biotechnology, Santa Cruz, Calif., USA), rabbit-GFAP (1:200, Invitrogen), mouse-human specific mitochondria (1:50, Chemicon), rabbit-human specific mitochondria (1:200, Chemicon), mouse-Islet1 (1:10, Developmental Studies Hydroma Bank, DSHB; Iowa City, Iowa, USA), mouse-Ki67 (1:100, Vector Laboratories, Peterborough, England), mouse-Mitf (1:1,000, abcam, Cambridge, Mass., USA), mouse-nestin (1:250, BD Sciences), rabbit-neurofilament-200 (1:1,000, Sigma-Aldrich), rabbit-Otx2 (1:100, abcam), rabbit-Pax2 (1:250, abcam), mouse-Pax6 (1:2, DSHB), mouse-peripherin2 (1:500, GenScript, Piscataway, N.J., USA), rabbit-Rax (1:250, abcam), rabbit-recoverin (1:1,000, Chemicon), retinal pigment epithelium 65 (RPE65, 1:100, Chemicon), rabbit-rhodopsin (1:500, Sigma-Aldrich), mouse-rhodopsin (1:500, Ret-P1, Lab Vision, Fremont, Calif., USA), mouse-rhodopsin (1:2,000, Ret-P1, Sigma-Aldrich), mouse-rom1 (1:50, ABR-Affinity Bioreagents, Golden, Colo., USA), rabbit-PDE6 beta (1:100, abcam), rabbit-phosducin (1:500, Santa Cruz Biotechnology), mouse-PKC-alpha (1:500, Sigma-Aldrich), mouse-Prox1 (1:2,000, Chemicon), mouse-Sox2 (1:250, R&D Systems), rabbit-synaptophysin (1:2,000, Santa Cruz Biotechnology), and rabbit-ZO-1 (1:100, Zymed-Invitrogen).
# (§2) Before use, these antibodies were diluted in a PBS solution containing 1% BSA and 0.25% Triton X-100. The cells cultured on the slides in each step were washed three times for 5 min with PBS and incubated at room temperature for 2 hrs with species-specific secondary antibody conjugated with Cy3 (1:800, Jackson Immunoresearch Laboratory) or Alexa488 (1:500, Invitrogen). A standard material suitable for the primary and the secondary antibody was used to examine non-specific staining or interaction between the antibodies. Afterwards, the cells were washed three times for 5 min with PBS, counterstained with DAPI (4,6-diamidino-2 phenylindole) and mounted in Vectashield (Vector Laboratories), followed by visualization under an epifluorescence microscope (Nikon Eclipse, E800, Tokyo, Japan) and a confocal microscope (Leica, Leica Microsystems Inc, Bannockburn, Ill., USA or Zeiss LSM510, Carl Zeiss, Inc, Thornwood, N.Y., USA).
# 500 cells were counted from 20 microscopic fields randomly selected at 200 magnification and evaluated for positive responses to each antibody. Positive responses to antibodies were determined after at least three evaluations. […]
# [2] = test system: hESC-derived retinal progenitor cells; experiment: as above
# [3] = test system: hESC-derived retinal progenitor cells; experiment: Differentiation into photoreceptor cells with Wnt3a or its inhibitor Dkk-1, without Shh and retinoic acid; immunofluorescent staining on Day 29; conditions: Wnt3a 50 ng/ml (Group I), from Day 13 to Day 29, no Shh, no RA
# Description: In order to examine the function of the Wnt signaling pathway activator on differentiation from hESCs into retinal cells, particularly photoreceptor cells, cells were cultured in the presence of a Wnt signaling pathway antagonist. The Wnt/Frizzled signaling pathway inhibitor Dkk-1 (R&D Systems, Minneapolis, Minn., USA) was added at a concentration of 10 ng/ml, 100 ng/ml or 1 μg/ml on day 13, followed by culturing the cells for an additional 16 days. While the antagonist concentrations were maintained uniformly over the culture time period, the Wnt signaling pathway activator was assayed for activity. Dkk-1 was dissolved in 0.1% bovine serum albumin (BSA, Sigma-Aldrich) in PBS before use.
# According to a protocol for differentiation into retinal cells, Wnt3a and Dkk-1 were added on Day 13 at the following concentrations: 50 ng/ml Wnt3a (group I), free of both Wnt3a and Dkk-1 (group II), 10 ng/ml Dkk-1 (group III), 100 ng/ml Dkk-1 (group IV), and […] Dkk-1 (group V). In each medium, the cells were cultured to Day 29. In this experiment, none of the other major differentiation factors Shh and RA were used.
# On Day 29, the cells which had been cultured on poly-D-lysine/laminin-coated, 8-well slides (BD Biosciences) under the conditions of Wnt3a and Dkk-1 (groups I-V) were fixed with 4% paraformaldehyde (Sigma-Aldrich), after which non-specific reactions were blocked with PBS containing 3% BSA (Jackson Immunoresearch Laboratory, Bar Harbor, Me., USA) and 0.25% Triton X-100 (Sigma-Aldrich).
# as §1
# as §2, with “cells” for “cells cultured on the slides in each step”, “USA). […]” for “USA).”
molecule,measurement,setting,value
"Wnt3a: recombinant Wnt3a (R&D Systems), Wnt signaling pathway activator (protein, UniProt P56704 19-352, looked up) Protein Wnt-3a: SYPIWWSLAVGPQYSSLGSQPILCASIPGLVPKQLRFCRNYVEIMPSVAEGIKIGIQECQHQFRGRRWNCTTVHDSLAIFGPVLDKATRESAFVHAIASAGVAFAVTRSCAEGTAAICGCSSRHQGSPGKGWKWGGCSEDIEFGGMVSREFADARENRPDARSAMNRHNNEAGRQAIASHMHLKCKCHGLSGSCEVKTCWWSQPDFRAIGDFLKDKYDSASEMVVEKHRESRGWVETLRPRYTYFKVPTERDLVYYEASPNFCEPNPETGSFGTRDRTCNVSSHGIDGCDLLCCGRGHNARAERRREKCRCVFHWCCYVSCQECTRVYDVHTCK",Expression level (positive rate) of Chx10 after Wnt3a addition,[1],64.5 (±1.6) %
same,Expression level (positive rate) of Crx after Wnt3a addition,[1],80.1% and 80.1 (±0.2) %
same,Expression level (positive rate) of Ki67 after Wnt3a addition,[1],31.5 (±0.5) %
same,Expression level (positive rate) of Mitf after Wnt3a addition,[1],2.7 (±1.0) %
same,Expression level (positive rate) of Nestin after Wnt3a addition,[1],18.0% and 18.0 (±1.4) %
same,Expression level (positive rate) of Otx2 after Wnt3a addition,[1],61.5 (±0.6) %
same,Expression level (positive rate) of Pax6 after Wnt3a addition,[1],89.1 (±2.5) %
same,Expression level (positive rate) of Peripherin2 after Wnt3a addition,[1],13.9% and 13.9 (±2.4) %
same,Expression level (positive rate) of Rax after Wnt3a addition,[1],98.2 (±0.9) %
same,Expression level (positive rate) of Recoverin after Wnt3a addition,[1],68.5% and 68.5 (±2.6) %
same,Expression level (positive rate) of Rhodopsin after Wnt3a addition,[1],52.9% and 52.9 (±3.4) %
same,Expression level (positive rate) of Sox2 after Wnt3a addition,[1],68.1 (±1.1) %
same,Pax6-positive cells with increase in Wnt3a concentration,[2],increased in a dose-dependent manner
same,Positive rate of Crx,[3],32.5 (±0.3) %
same,Positive rate of Pax6,[3],82.1 (±4.0) %
same,Positive rate of peripherin2,[3],21.5 (±0.3) %
same,Positive rate of recoverin,[3],72.3 (±0.8) %
same,Positive rate of rhodopsin,[3],73.8 (±0.9) %
